# From patent US20240270846A1 (published 2024)
# Positions count from the first letter of the chain named. In names and notes the source's numbering stands.
# B1: GLS3000 S27aE one-arm antibody (H chain CE115HA000) (antibody, human IgG1, kappa, L234A L235A, N297A, name in Kabat numbering)
# heavy: QVQLVESGGGVVQPGRSLRLSCAASGFTFSNAWMHWVRQAPGKGLEWVAQIKAKSNNYATYYAESVKGRFTISRDDSKNSLYLQMNSLKTEDTAVYYCRYVHYGAYYGVDAWGQGTTVTVSSASTKGPSVFPLAPSSKSTSGGTAALGCLVKDYFPEPVTVSWNSGALTSGVHTFPAVLQSSGLYSLSSVVTVPSSSLGTQTYICNVNHKPSNTKVDKKVEPKSCDKTHTCPPCPAPEAAGGPSVFLFPPKPKDTLMISRTPEVTCVVVDVSHEDPEVKFNWYVDGVEVHNAKTKPREEQYASTYRVVSVLTVLHQDWLNGKEYKCKVSNKALPAPIEKTISKAKGQPREPQVYTLPPSRCELTKNQVSLSCAVKGFYPSDIAVEWESNGQPENNYKTTPPVLDSDGSFFLVSKLTVDKSRWQQGNVFSCSVMHEALHNHYTQKSLSLSPDYKDDDDK
# chain: EPKSSDKTHTCPPCPAPELLGGPSVFLFPPKPKDTLMISRTPEVTCVVVDVSHEDPEVKFNWYVDGVEVHNAKTKPREEQYNSTYRVVSVLTVLHQDWLNGKEYKCKVSNKALPAPIEKTISKAKGQPREPQVCTLPPSRDELTKNQVSLWCLVKGFYPSDIAVEWESNGQPENNYKTTPPVLDSDGSFFLYSKLTVDKSRWQQGNVFSCSVMHEALHNRYTQKSLSLSP
# light: DIVMTQSPLSLPVTPGEPASISCRSSQELVHSNRNTYLHWYQQKPGQAPRLLIYKVSNRFSGVPDRFSGSGSGTDFTLKISRVEAEDVGVYYCGQGTQVPYTFGQGTKLEIKRTVAAPSVFIFPPSDEQLKSGTASVVCLLNNFYPREAKVQWKVDNALQSGNSQESVTEQDSKDSTYSLSSTLTLSKADYEKHKVYACEVTHQGLSSPVTKSFNRGEC
# notes: one-arm antibody
# B2: GLS3000 S27eT one-arm antibody (H chain CE115HA000) (antibody, human IgG1, kappa, L234A L235A, N297A, name in Kabat numbering)
# heavy: B1 heavy
# chain: B1 chain
# light: B1 light with E28S, S32T
# notes: one-arm antibody
# B3: GLS3000 S27eI one-arm antibody (H chain CE115HA000) (antibody, human IgG1, kappa, L234A L235A, N297A, name in Kabat numbering)
# heavy: B1 heavy
# chain: B1 chain
# light: B1 light with E28S, S32I
# notes: one-arm antibody
# B4: GLS3000 S27eR one-arm antibody (H chain CE115HA000) (antibody, human IgG1, kappa, L234A L235A, N297A, name in Kabat numbering)
# heavy: B1 heavy
# chain: B1 chain
# light: B1 light with E28S, S32R
# notes: one-arm antibody
# B5: GLS3000 S27eF one-arm antibody (H chain CE115HA000) (antibody, human IgG1, kappa, L234A L235A, N297A, name in Kabat numbering)
# heavy: B1 heavy
# chain: B1 chain
# light: B1 light with E28S, S32F
# notes: one-arm antibody
# B6: GLS3000 S27aG one-arm antibody (H chain CE115HA000) (antibody, human IgG1, kappa, L234A L235A, N297A, name in Kabat numbering)
# heavy: B1 heavy
# chain: B1 chain
# light: B1 light with E28G
# notes: one-arm antibody
# B7: GLS3000 S27eD one-arm antibody (H chain CE115HA000) (antibody, human IgG1, kappa, L234A L235A, N297A, name in Kabat numbering)
# heavy: B1 heavy
# chain: B1 chain
# light: B1 light with E28S, S32D
# notes: one-arm antibody
# B8: GLS3000 S52A one-arm antibody (H chain CE115HA000) (antibody, human IgG1, kappa, L234A L235A, N297A, name in Kabat numbering)
# heavy: B1 heavy
# chain: B1 chain
# light: B1 light with E28S, S57A
# notes: one-arm antibody
# B9: GLS3000 S27eP one-arm antibody (H chain CE115HA000) (antibody, human IgG1, kappa, L234A L235A, N297A, name in Kabat numbering)
# heavy: B1 heavy
# chain: B1 chain
# light: B1 light with E28S, S32P
# notes: one-arm antibody
# B10: GLS3000 S27eA one-arm antibody (H chain CE115HA000) (antibody, human IgG1, kappa, L234A L235A, N297A, name in Kabat numbering)
# heavy: B1 heavy
# chain: B1 chain
# light: B1 light with E28S, S32A
# notes: one-arm antibody
# B11: GLS3000 S27aN one-arm antibody (H chain CE115HA000) (antibody, human IgG1, kappa, L234A L235A, N297A, name in Kabat numbering)
# heavy: B1 heavy
# chain: B1 chain
# light: B1 light with E28N
# notes: one-arm antibody
# B12: GLS3000 S27eN one-arm antibody (H chain CE115HA000) (antibody, human IgG1, kappa, L234A L235A, N297A, name in Kabat numbering)
# heavy: B1 heavy
# chain: B1 chain
# light: B1 light with E28S, S32N
# notes: one-arm antibody
# B13: GLS3000 S27aP one-arm antibody (H chain CE115HA000) (antibody, human IgG1, kappa, L234A L235A, N297A, name in Kabat numbering)
# heavy: B1 heavy
# chain: B1 chain
# light: B1 light with E28P
# notes: one-arm antibody
# B14: GLS3000 T31D one-arm antibody (H chain CE115HA000) (antibody, human IgG1, kappa, L234A L235A, N297A, name in Kabat numbering)
# heavy: B1 heavy
# chain: B1 chain
# light: B1 light with E28S, T36D
# notes: one-arm antibody
# B15: GLS3000 S56D one-arm antibody (H chain CE115HA000) (antibody, human IgG1, kappa, L234A L235A, N297A, name in Kabat numbering)
# heavy: B1 heavy
# chain: B1 chain
# light: B1 light with E28S, S61D
# notes: one-arm antibody
# B16: GLS3000 S27eW one-arm antibody (H chain CE115HA000) (antibody, human IgG1, kappa, L234A L235A, N297A, name in Kabat numbering)
# heavy: B1 heavy
# chain: B1 chain
# light: B1 light with E28S, S32W
# notes: one-arm antibody
# B17: GLS3000 S56A one-arm antibody (H chain CE115HA000) (antibody, human IgG1, kappa, L234A L235A, N297A, name in Kabat numbering)
# heavy: B1 heavy
# chain: B1 chain
# light: B1 light with E28S, S61A
# notes: one-arm antibody
# B18: GLS3000 S27eG one-arm antibody (H chain CE115HA000) (antibody, human IgG1, kappa, L234A L235A, N297A, name in Kabat numbering)
# heavy: B1 heavy
# chain: B1 chain
# light: B1 light with E28S, S32G
# notes: one-arm antibody
# B19: GLS3000 S27eV one-arm antibody (H chain CE115HA000) (antibody, human IgG1, kappa, L234A L235A, N297A, name in Kabat numbering)
# heavy: B1 heavy
# chain: B1 chain
# light: B1 light with E28S, S32V
# notes: one-arm antibody
# B20: GLS3000 S52D one-arm antibody (H chain CE115HA000) (antibody, human IgG1, kappa, L234A L235A, N297A, name in Kabat numbering)
# heavy: B1 heavy
# chain: B1 chain
# light: B1 light with E28S, S57D
# notes: one-arm antibody
# B21: GLS3000 V27cD one-arm antibody (H chain CE115HA000) (antibody, human IgG1, kappa, L234A L235A, N297A, name in Kabat numbering)
# heavy: B1 heavy
# chain: B1 chain
# light: B1 light with E28S, V30D
# notes: one-arm antibody
# B22: GLS3000 S27aY one-arm antibody (H chain CE115HA000) (antibody, human IgG1, kappa, L234A L235A, N297A, name in Kabat numbering)
# heavy: B1 heavy
# chain: B1 chain
# light: B1 light with E28Y
# notes: one-arm antibody
# B23: GLS3000 S27eH one-arm antibody (H chain CE115HA000) (antibody, human IgG1, kappa, L234A L235A, N297A, name in Kabat numbering)
# heavy: B1 heavy
# chain: B1 chain
# light: B1 light with E28S, S32H
# notes: one-arm antibody
# B24: GLS3000 S27eM one-arm antibody (H chain CE115HA000) (antibody, human IgG1, kappa, L234A L235A, N297A, name in Kabat numbering)
# heavy: B1 heavy
# chain: B1 chain
# light: B1 light with E28S, S32M
# notes: one-arm antibody
# B25: GLS3000 S27eQ one-arm antibody (H chain CE115HA000) (antibody, human IgG1, kappa, L234A L235A, N297A, name in Kabat numbering)
# heavy: B1 heavy
# chain: B1 chain
# light: B1 light with E28S, S32Q
# notes: one-arm antibody
# B26: GLS3000 S27eY one-arm antibody (H chain CE115HA000) (antibody, human IgG1, kappa, L234A L235A, N297A, name in Kabat numbering)
# heavy: B1 heavy
# chain: B1 chain
# light: B1 light with E28S, S32Y
# notes: one-arm antibody
# B27: GLS3000 S27eK one-arm antibody (H chain CE115HA000) (antibody, human IgG1, kappa, L234A L235A, N297A, name in Kabat numbering)
# heavy: B1 heavy
# chain: B1 chain
# light: B1 light with E28S, S32K
# notes: one-arm antibody
# B28: GLS3000 S27aI one-arm antibody (H chain CE115HA000) (antibody, human IgG1, kappa, L234A L235A, N297A, name in Kabat numbering)
# heavy: B1 heavy
# chain: B1 chain
# light: B1 light with E28I
# notes: one-arm antibody
# B29: GLS3000 S27eL one-arm antibody (H chain CE115HA000) (antibody, human IgG1, kappa, L234A L235A, N297A, name in Kabat numbering)
# heavy: B1 heavy
# chain: B1 chain
# light: B1 light with E28S, S32L
# notes: one-arm antibody
# B30: GLS3000 S27eE one-arm antibody (H chain CE115HA000) (antibody, human IgG1, kappa, L234A L235A, N297A, name in Kabat numbering)
# heavy: B1 heavy
# chain: B1 chain
# light: B1 light with E28S, S32E
# notes: one-arm antibody
# B31: GLS3000 V27cE one-arm antibody (H chain CE115HA000) (antibody, human IgG1, kappa, L234A L235A, N297A, name in Kabat numbering)
# heavy: B1 heavy
# chain: B1 chain
# light: B1 light with E28S, V30E
# notes: one-arm antibody
# Molecular target: T1, CD3 epsilon homodimer protein (UniProt P07766 23-126)
# T1 construct: also called CD3 (CD3 epsilon)
# T1 sequence (P07766 23-126): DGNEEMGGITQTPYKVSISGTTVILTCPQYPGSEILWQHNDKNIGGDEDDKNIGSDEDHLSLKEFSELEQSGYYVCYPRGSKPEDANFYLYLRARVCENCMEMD
# Test: SPR, CD3e homodimer on chip;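 note: surface plasmon resonance at 25 degrees C, antibodies flowed as analyte over CD3 epsilon homodimer amine-coupled to a CM4 chip, running buffer HBS-EP+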
# Procedure: An appropriate amount of CD3 epsilon homodimer protein was immobilized onto Sensor chip CM4 (GE Healthcare Japan Corp.) by the amine coupling method. Then, the antibody having an appropriate concentration was injected thereto as an analyte and allowed to interact with the CD3 epsilon homodimer protein on the sensor chip. Then, the sensor chip was regenerated by the injection of 10 mmol/L glycine-HCl (pH 1.5). The assay was conducted at 25 degrees C., and HBS-EP+(GE Healthcare Japan Corp.) was used as a running buffer. […] Each parameter was calculated using Biacore T200 Evaluation Software (GE Healthcare Japan Corp.).
# Specifically, when the amount of the GLS3000-containing antibody bound was defined as X and the amount of the L chain one-amino acid altered form bound was defined as Y, a value of Z (ratio of amounts bound)=Y/X was used.
row,Binder,ratio of amounts bound (altered form / unaltered GLS3000 antibody)
1,B1,0.81
2,B2,0.97
3,B3,1.07
4,B4,1.58
5,B5,1.32
6,B6,1.03
7,B7,0.69
8,B8,0.93
9,B9,1.26
10,B10,1.03
11,B11,1.1
12,B12,1.16
13,B13,0.99
14,B14,0.23
15,B15,0.77
16,B16,1.55

row,Binder,ratio of amounts bound (altered form / unaltered GLS3000 antibody)
1,B17,1.16
2,B18,1.04
3,B19,1.08
4,B20,0.63
5,B21,0.32
6,B22,1.1
7,B23,1.23
8,B24,1.23
9,B25,1.1
10,B26,1.2
11,B27,1.59
12,B28,1
13,B29,1.17
14,B30,0.76
15,B31,0.61
